Reference: patent US20060024313A1 (published 2006)

Experiments:
[1] = target: the molecule itself; assay: dimer form listed in the table of kinetic constants (self-association)
[2] = target: the molecule itself; assay: AUC (self-association)
[3] = target: T1, DPP-IV H750E mutant (human, UniProt P27487 39-766); assay: ADA affinity column purification
T1 construct: range 39-766; Monomeric by AUC

[4] = target: T2, DPP-IV H750A mutant (human, UniProt P27487 39-766); assay: ADA affinity column purification
T2 construct: range 39-766; also called H750A dimer; H750A monomer

Row | Binder | binding result [2] | other results
1 | DPP-IV V724A mutant (enzyme, human, UniProt P27487 39-766, looked up, Mixture of monomers and dimers) SRKTYTLTDYLKNTYRLKLYSLRWISDHEYLYKQENNILVFNAEYGNSSVFLENSTFDEFGHSINDYSISPDGQFILLEYNYVKQWRHSYTASYDIYDLNKRQLITEERIPNNTQWVTWSPVGHKLAYVWNNDIYVKIEPNLPSYRITWTGKEDIIYNGITDWVYEEEVFSAYSALWWSPNGTFLAYAQFNDTEVPLIEYSFYSDESLQYPKTVRVPYPKAGAVNPTVKFFVVNTDSLSSVTNATSIQITAPASMLIGDHYLCDVTWATQERISLQWLRRIQNYSVMDICDYDESSGRWNCLVARQHIEMSTTGWVGRFRPSEPHFTLDGNSFYKIISNEEGYRHICYFQIDKKDCTFITKGTWEVIGIEALTSDYLYYISNEYKGMPGGRNLYKIQLSDYTKVTCLSCELNPERCQYYSVSFSKEAKYYQLRCSGPGLPLYTLHSSVNDKGLRVLEDNSALDKMLQNVQMPSKKLDFIILNETKFWYQMILPPHFDKSKKYPLLLDVYAGPCSQKADTVFRLNWATYLASTENIIVASFDGRGSGYQGDKIMHAINRRLGTFEVEDQIEAARQFSKMGFVDNKRIAIWGWSYGGYVTSMVLGSGSGVFKCGIAVAPVSRWEYYDSVYTERYMGLPTPEDNLDHYRNSTVMSRAENFKQVEYLLIHGTADDNVHFQQSAQISKALADVGVDFQAMWYTDEDHGIASSTAHQHIYTHMSHFIKQCFSLP | – | binding result [1]: binds
2 | DPP-IV W734A mutant (enzyme, human, UniProt P27487 39-766, looked up, Monomer by AUC) SRKTYTLTDYLKNTYRLKLYSLRWISDHEYLYKQENNILVFNAEYGNSSVFLENSTFDEFGHSINDYSISPDGQFILLEYNYVKQWRHSYTASYDIYDLNKRQLITEERIPNNTQWVTWSPVGHKLAYVWNNDIYVKIEPNLPSYRITWTGKEDIIYNGITDWVYEEEVFSAYSALWWSPNGTFLAYAQFNDTEVPLIEYSFYSDESLQYPKTVRVPYPKAGAVNPTVKFFVVNTDSLSSVTNATSIQITAPASMLIGDHYLCDVTWATQERISLQWLRRIQNYSVMDICDYDESSGRWNCLVARQHIEMSTTGWVGRFRPSEPHFTLDGNSFYKIISNEEGYRHICYFQIDKKDCTFITKGTWEVIGIEALTSDYLYYISNEYKGMPGGRNLYKIQLSDYTKVTCLSCELNPERCQYYSVSFSKEAKYYQLRCSGPGLPLYTLHSSVNDKGLRVLEDNSALDKMLQNVQMPSKKLDFIILNETKFWYQMILPPHFDKSKKYPLLLDVYAGPCSQKADTVFRLNWATYLASTENIIVASFDGRGSGYQGDKIMHAINRRLGTFEVEDQIEAARQFSKMGFVDNKRIAIWGWSYGGYVTSMVLGSGSGVFKCGIAVAPVSRWEYYDSVYTERYMGLPTPEDNLDHYRNSTVMSRAENFKQVEYLLIHGTADDNVHFQQSAQISKALVDVGVDFQAMAYTDEDHGIASSTAHQHIYTHMSHFIKQCFSLP | no binding | –
3 | DPP-IV Y248A mutant (enzyme, human, UniProt P27487 39-766, looked up, Monomer by AUC) SRKTYTLTDYLKNTYRLKLYSLRWISDHEYLYKQENNILVFNAEYGNSSVFLENSTFDEFGHSINDYSISPDGQFILLEYNYVKQWRHSYTASYDIYDLNKRQLITEERIPNNTQWVTWSPVGHKLAYVWNNDIYVKIEPNLPSYRITWTGKEDIIYNGITDWVYEEEVFSAYSALWWSPNGTFLAYAQFNDTEVPLIEYSFYSDESLQAPKTVRVPYPKAGAVNPTVKFFVVNTDSLSSVTNATSIQITAPASMLIGDHYLCDVTWATQERISLQWLRRIQNYSVMDICDYDESSGRWNCLVARQHIEMSTTGWVGRFRPSEPHFTLDGNSFYKIISNEEGYRHICYFQIDKKDCTFITKGTWEVIGIEALTSDYLYYISNEYKGMPGGRNLYKIQLSDYTKVTCLSCELNPERCQYYSVSFSKEAKYYQLRCSGPGLPLYTLHSSVNDKGLRVLEDNSALDKMLQNVQMPSKKLDFIILNETKFWYQMILPPHFDKSKKYPLLLDVYAGPCSQKADTVFRLNWATYLASTENIIVASFDGRGSGYQGDKIMHAINRRLGTFEVEDQIEAARQFSKMGFVDNKRIAIWGWSYGGYVTSMVLGSGSGVFKCGIAVAPVSRWEYYDSVYTERYMGLPTPEDNLDHYRNSTVMSRAENFKQVEYLLIHGTADDNVHFQQSAQISKALVDVGVDFQAMWYTDEDHGIASSTAHQHIYTHMSHFIKQCFSLP | no binding | –
4 | DPP-IV F713R mutant (enzyme, human, UniProt P27487 39-766, looked up) SRKTYTLTDYLKNTYRLKLYSLRWISDHEYLYKQENNILVFNAEYGNSSVFLENSTFDEFGHSINDYSISPDGQFILLEYNYVKQWRHSYTASYDIYDLNKRQLITEERIPNNTQWVTWSPVGHKLAYVWNNDIYVKIEPNLPSYRITWTGKEDIIYNGITDWVYEEEVFSAYSALWWSPNGTFLAYAQFNDTEVPLIEYSFYSDESLQYPKTVRVPYPKAGAVNPTVKFFVVNTDSLSSVTNATSIQITAPASMLIGDHYLCDVTWATQERISLQWLRRIQNYSVMDICDYDESSGRWNCLVARQHIEMSTTGWVGRFRPSEPHFTLDGNSFYKIISNEEGYRHICYFQIDKKDCTFITKGTWEVIGIEALTSDYLYYISNEYKGMPGGRNLYKIQLSDYTKVTCLSCELNPERCQYYSVSFSKEAKYYQLRCSGPGLPLYTLHSSVNDKGLRVLEDNSALDKMLQNVQMPSKKLDFIILNETKFWYQMILPPHFDKSKKYPLLLDVYAGPCSQKADTVFRLNWATYLASTENIIVASFDGRGSGYQGDKIMHAINRRLGTFEVEDQIEAARQFSKMGFVDNKRIAIWGWSYGGYVTSMVLGSGSGVFKCGIAVAPVSRWEYYDSVYTERYMGLPTPEDNLDHYRNSTVMSRAENFKQVEYLLIHGTADDNVHRQQSAQISKALVDVGVDFQAMWYTDEDHGIASSTAHQHIYTHMSHFIKQCFSLP | no binding | –
5 | DPP-IV Y735A mutant (enzyme, human, UniProt P27487 39-766, looked up, Monomer by AUC) SRKTYTLTDYLKNTYRLKLYSLRWISDHEYLYKQENNILVFNAEYGNSSVFLENSTFDEFGHSINDYSISPDGQFILLEYNYVKQWRHSYTASYDIYDLNKRQLITEERIPNNTQWVTWSPVGHKLAYVWNNDIYVKIEPNLPSYRITWTGKEDIIYNGITDWVYEEEVFSAYSALWWSPNGTFLAYAQFNDTEVPLIEYSFYSDESLQYPKTVRVPYPKAGAVNPTVKFFVVNTDSLSSVTNATSIQITAPASMLIGDHYLCDVTWATQERISLQWLRRIQNYSVMDICDYDESSGRWNCLVARQHIEMSTTGWVGRFRPSEPHFTLDGNSFYKIISNEEGYRHICYFQIDKKDCTFITKGTWEVIGIEALTSDYLYYISNEYKGMPGGRNLYKIQLSDYTKVTCLSCELNPERCQYYSVSFSKEAKYYQLRCSGPGLPLYTLHSSVNDKGLRVLEDNSALDKMLQNVQMPSKKLDFIILNETKFWYQMILPPHFDKSKKYPLLLDVYAGPCSQKADTVFRLNWATYLASTENIIVASFDGRGSGYQGDKIMHAINRRLGTFEVEDQIEAARQFSKMGFVDNKRIAIWGWSYGGYVTSMVLGSGSGVFKCGIAVAPVSRWEYYDSVYTERYMGLPTPEDNLDHYRNSTVMSRAENFKQVEYLLIHGTADDNVHFQQSAQISKALVDVGVDFQAMWATDEDHGIASSTAHQHIYTHMSHFIKQCFSLP | no binding | –
6 | DPP-IV F713A mutant (enzyme, human, UniProt P27487 39-766, looked up) SRKTYTLTDYLKNTYRLKLYSLRWISDHEYLYKQENNILVFNAEYGNSSVFLENSTFDEFGHSINDYSISPDGQFILLEYNYVKQWRHSYTASYDIYDLNKRQLITEERIPNNTQWVTWSPVGHKLAYVWNNDIYVKIEPNLPSYRITWTGKEDIIYNGITDWVYEEEVFSAYSALWWSPNGTFLAYAQFNDTEVPLIEYSFYSDESLQYPKTVRVPYPKAGAVNPTVKFFVVNTDSLSSVTNATSIQITAPASMLIGDHYLCDVTWATQERISLQWLRRIQNYSVMDICDYDESSGRWNCLVARQHIEMSTTGWVGRFRPSEPHFTLDGNSFYKIISNEEGYRHICYFQIDKKDCTFITKGTWEVIGIEALTSDYLYYISNEYKGMPGGRNLYKIQLSDYTKVTCLSCELNPERCQYYSVSFSKEAKYYQLRCSGPGLPLYTLHSSVNDKGLRVLEDNSALDKMLQNVQMPSKKLDFIILNETKFWYQMILPPHFDKSKKYPLLLDVYAGPCSQKADTVFRLNWATYLASTENIIVASFDGRGSGYQGDKIMHAINRRLGTFEVEDQIEAARQFSKMGFVDNKRIAIWGWSYGGYVTSMVLGSGSGVFKCGIAVAPVSRWEYYDSVYTERYMGLPTPEDNLDHYRNSTVMSRAENFKQVEYLLIHGTADDNVHAQQSAQISKALVDVGVDFQAMWYTDEDHGIASSTAHQHIYTHMSHFIKQCFSLP | no binding | –
7 | DPP-IV F730A mutant (enzyme, human, UniProt P27487 39-766, looked up, Mixture of monomers and dimers) SRKTYTLTDYLKNTYRLKLYSLRWISDHEYLYKQENNILVFNAEYGNSSVFLENSTFDEFGHSINDYSISPDGQFILLEYNYVKQWRHSYTASYDIYDLNKRQLITEERIPNNTQWVTWSPVGHKLAYVWNNDIYVKIEPNLPSYRITWTGKEDIIYNGITDWVYEEEVFSAYSALWWSPNGTFLAYAQFNDTEVPLIEYSFYSDESLQYPKTVRVPYPKAGAVNPTVKFFVVNTDSLSSVTNATSIQITAPASMLIGDHYLCDVTWATQERISLQWLRRIQNYSVMDICDYDESSGRWNCLVARQHIEMSTTGWVGRFRPSEPHFTLDGNSFYKIISNEEGYRHICYFQIDKKDCTFITKGTWEVIGIEALTSDYLYYISNEYKGMPGGRNLYKIQLSDYTKVTCLSCELNPERCQYYSVSFSKEAKYYQLRCSGPGLPLYTLHSSVNDKGLRVLEDNSALDKMLQNVQMPSKKLDFIILNETKFWYQMILPPHFDKSKKYPLLLDVYAGPCSQKADTVFRLNWATYLASTENIIVASFDGRGSGYQGDKIMHAINRRLGTFEVEDQIEAARQFSKMGFVDNKRIAIWGWSYGGYVTSMVLGSGSGVFKCGIAVAPVSRWEYYDSVYTERYMGLPTPEDNLDHYRNSTVMSRAENFKQVEYLLIHGTADDNVHFQQSAQISKALVDVGVDAQAMWYTDEDHGIASSTAHQHIYTHMSHFIKQCFSLP | – | binding result [1]: binds
8 | Bovine adenosine deaminase (ADA) (enzyme, UniProt P56658 2-363, looked up, coupled to CNBr-activated Sepharose 4B (affinity column)) AQTPAFNKPKVELHVHLDGAIKPETILYYGRKRGIALPADTPEELQNIIGMDKPLSLPEFLAKFDYYMPAIAGCREAVKRIAYEFVEMKAKDGVVYVEVRYSPHLLANSKVEPIPWNQAEGDLTPDEVVSLVNQGLQEGERDFGVKVRSILCCMRHQPSWSSEVVELCKKYREQTVVAIDLAGDETIEGSSLFPGHVKAYAEAVKSGVHRTVHAGEVGSANVVKEAVDTLKTERLGHGYHTLEDATLYNRLRQENMHFEVCPWSSYLTGAWKPDTEHPVVRFKNDQVNYSLNTDDPLIFKSTLDTDYQMTKNEMGFTEEEFKRLNINAAKSSFLPEDEKKELLDLLYKAYGMPSPASAEQCL | – | binding result [3]: binds; binding result [4]: binds
